# Patent publication US20210171611A1 (SEOUL NATIONAL UNIVERSITY R AND DB FOUNDATION, published 2021)
# B1: Ab10 scFv (scFv)
# scFv: ELVMTQSPSSLSASVGDTVTITCRASQSIYTYLNWYHQTPGKAPKLLISAASSLQSGVPSRFSGSGSGTDFTLTISSLQPEDFATYYCQQYADVPVTFGGGTKLEIKGGSSRSSSSGGGGSGGGGEVQLVESGGGVVQPGRSLRLSCAASGFTFSGYGIHWVRQAPGKGLEWVALISYDGSNKYYADSVKGRFTISRDNSKNTLYLQMNSLRAEDTAVYYCAKDRDYFGSGFFDYWGQGTLVTVSS
# B2: Ab8 scFv (scFv)
# scFv: ELALTQPPSVSVAPAMTAKITCGGDDIGSTTVQWYQQTSGQAPVLVVYDDSDRPSGIPERFSGANSGNTATLTISRVEAGDEADYYCQVWDGRSDHVVFGGGTKLTVLGGGSSRSSSSGGGGSGGGGQVQLVQSGAEVKKPGESLKISCKGSGYIFTNYWIGWVRQMPGKGLEWMGIIYPGDSDTRYSPSFQGQVTISADRSISTANLQWSSLKASDTALYYCARLKLRGFSGGYGSGRRYFDYWGQGTLVTVSS
# B3: Ab9 scFv (scFv)
# scFv: ELELTQPPSVSGTPGKRVSMSCSGSRSNIGGNVVNWYQQLPGKAPKLFIYNNDQRPSGVPDRVSGSKSGTSVSVAISGLQPEDEADYYCAAWDDILNGVVFGGGTQLTVLGGGSSRSSSSGGGGSGGGGQVQLVQSGAEVKKPGESLKISCKGSGYNFTNYWIGWVRQLPGKGLEWMGIIYPGDSDTRYSPSFQGQVTISADKSISTAYLQWSSLKASDTAMYYCARIRVIGFYDSSPPPLFDYWGQGTLVTVSS
# Target: T1, recombinant SFTS virus glycoprotein Gn fused to human Ig k-chain constant region (severe fever with thrombocytopenia …, UniProt P01834 1-107)
# T1 construct: also called Gn-Ck
# Assay: ELISA on recombinant glycoprotein (Gn-Ck coated, Example 5)
row,Binder,binding result
1,B1,binds
2,B2,binds
3,B3,binds
